Key:
Assay in all cases: ELISA; PEPSCAN ELISA; biotinylated EID2 peptides (400 nM) on streptavidin-coated plates; His-S-MAGEC2(129-339) 200–400 nM, 4°C overnight; anti-His detection
Details in all cases: both partners purified
[1] = biological target: T1, EID2 peptide #11 (I207A) (human, I207A (stands in the printed letters), biotin, linked via the SGSG spacer)
T1 construct: source: synthetic peptide (Mimotopes)
T1 peptide: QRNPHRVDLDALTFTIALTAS

[2] = biological target: T2, EID2 peptide #16 (I212A) (human, I212A (stands in the printed letters), biotin, linked via the SGSG spacer)
T2 construct: source: synthetic peptide (Mimotopes)
T2 peptide: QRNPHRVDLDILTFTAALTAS

[3] = biological target: T3, EID2 peptide #12 (L208A) (human, L208A (stands in the printed letters), biotin, linked via the SGSG spacer)
T3 construct: source: synthetic peptide (Mimotopes)
T3 peptide: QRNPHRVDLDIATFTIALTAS

[4] = biological target: T4, EID2 peptide #1 (Q197A) (human, Q197A (stands in the printed letters), biotin, linked via the SGSG spacer)
T4 construct: source: synthetic peptide (Mimotopes)
T4 peptide: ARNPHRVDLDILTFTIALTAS

[5] = biological target: T5, EID2 peptide #19 (S217A) (human, S217A (stands in the printed letters), biotin, linked via the SGSG spacer)
T5 construct: source: synthetic peptide (Mimotopes)
T5 peptide: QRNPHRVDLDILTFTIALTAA

[6] = biological target: T6, EID2 peptide #2 (R198A) (human, R198A (stands in the printed letters), biotin, linked via the SGSG spacer)
T6 construct: source: synthetic peptide (Mimotopes)
T6 peptide: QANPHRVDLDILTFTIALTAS

[7] = biological target: T7, EID2 peptide #17 (L214A) (human, L214A (stands in the printed letters), biotin, linked via the SGSG spacer)
T7 construct: source: synthetic peptide (Mimotopes)
T7 peptide: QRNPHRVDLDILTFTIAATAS

[8] = biological target: T8, EID2 peptide #10 (D206A) (human, D206A (stands in the printed letters), biotin, linked via the SGSG spacer)
T8 construct: source: synthetic peptide (Mimotopes)
T8 peptide: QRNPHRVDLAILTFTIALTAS

[9] = biological target: T9, EID2 peptide #14 (F210A) (human, F210A (stands in the printed letters), biotin, linked via the SGSG spacer)
T9 construct: source: synthetic peptide (Mimotopes)
T9 peptide: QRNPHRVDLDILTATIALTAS

[10] = biological target: T10, EID2 peptide #9 (L205A) (human, L205A (stands in the printed letters), biotin, linked via the SGSG spacer)
T10 construct: source: synthetic peptide (Mimotopes)
T10 peptide: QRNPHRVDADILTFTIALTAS

[11] = biological target: T11, EID2 peptide #18 (T215A) (human, T215A (stands in the printed letters), biotin, linked via the SGSG spacer)
T11 construct: source: synthetic peptide (Mimotopes)
T11 peptide: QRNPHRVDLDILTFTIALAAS

[12] = biological target: T12, EID2 peptide #6 (R202A) (human, R202A (stands in the printed letters), biotin, linked via the SGSG spacer)
T12 construct: source: synthetic peptide (Mimotopes)
T12 peptide: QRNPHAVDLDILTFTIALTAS

percent of wt binding affinity [1]: ~30 % of wt | percent of WT affinity [2]: < 20 % of WT affinity | percent of wt binding affinity [3]: ~30 % of wt | percent of wt binding affinity [4]: ~30 % of wt | percent of wt binding affinity [5]: ~30 % of wt | percent of WT affinity [6]: < 20 % of WT affinity | percent of WT affinity [7]: < 20 % of WT affinity | percent of wt binding affinity [8]: ~30 % of wt | percent of WT affinity [9]: < 20 % of WT affinity | percent of wt binding affinity [10]: ~30 % of wt | percent of wt binding affinity [11]: ~30 % of wt | percent of WT affinity [12]: < 20 % of WT affinity
B1: His-S-MAGEC2(129-339) (domain or fragment, human, UniProt Q9UBF1 129-339, looked up)
chain: GLPDSESSFTYTLDEKVAELVEFLLLKYEAEEPVTEAEMLMIVIKYKDYFPVILKRAREFMELLFGLALIEVGPDHFCVFANTVGLTDEGSDDEGMPENSLLIIILSVIFIKGNCASEEVIWEVLNAVGVYAGREHFVYGEPRELLTKVWVQGHYLEYREVPHSSPPYYEFLWGPRAHSESIKKKVLEFLAKLNNTVPSSFPSWYKDALKD
notes: source: E. coli C41, purified (His-TRAP column, FPLC)
